Measured values from patent publication US20200087372A1 (ZEALAND PHARMA A S, published 2020).

Tests used:
Test in all cases: cell-based or functional assay
[1] = target: human glucagon receptor (Glucagon-R) (human, UniProt P47871 26-477)
[2] = target: human glucagon-like peptide 1 receptor (GLP-1R) (human, UniProt P43220 24-463)
[3] = target: T1, endogenous GLP-1 receptor of a murine insulinoma cell line (murine, UniProt O35659 22-463)
T1 sequence (looked up): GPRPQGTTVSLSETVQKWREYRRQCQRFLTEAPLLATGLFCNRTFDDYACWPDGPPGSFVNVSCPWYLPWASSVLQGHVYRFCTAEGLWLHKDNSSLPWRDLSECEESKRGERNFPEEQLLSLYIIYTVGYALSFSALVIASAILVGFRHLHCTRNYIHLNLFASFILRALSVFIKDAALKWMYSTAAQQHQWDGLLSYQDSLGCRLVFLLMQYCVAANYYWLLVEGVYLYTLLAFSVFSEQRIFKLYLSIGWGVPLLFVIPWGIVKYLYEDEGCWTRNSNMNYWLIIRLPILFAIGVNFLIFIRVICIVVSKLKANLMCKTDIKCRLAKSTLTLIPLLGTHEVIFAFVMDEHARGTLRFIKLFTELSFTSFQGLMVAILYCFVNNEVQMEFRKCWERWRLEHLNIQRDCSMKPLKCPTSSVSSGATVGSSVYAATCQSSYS

[4] = target: endogenous glucagon receptor of primary rat hepatocytes (rat, UniProt P30082 27-485)
Chain of endogenous glucagon receptor of primary rat hepatocytes (P30082 27-485): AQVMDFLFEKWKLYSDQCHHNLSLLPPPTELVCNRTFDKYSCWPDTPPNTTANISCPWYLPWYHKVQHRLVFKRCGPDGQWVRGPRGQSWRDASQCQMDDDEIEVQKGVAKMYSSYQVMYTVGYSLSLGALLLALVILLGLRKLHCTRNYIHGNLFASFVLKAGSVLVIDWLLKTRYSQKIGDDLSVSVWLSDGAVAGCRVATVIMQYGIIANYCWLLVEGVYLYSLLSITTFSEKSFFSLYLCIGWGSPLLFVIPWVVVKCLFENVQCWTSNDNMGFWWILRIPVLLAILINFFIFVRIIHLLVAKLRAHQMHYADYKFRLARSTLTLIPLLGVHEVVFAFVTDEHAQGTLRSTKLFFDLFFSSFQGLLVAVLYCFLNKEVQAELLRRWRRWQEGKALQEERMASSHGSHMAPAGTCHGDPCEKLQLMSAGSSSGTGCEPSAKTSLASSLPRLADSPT

Chain of human glucagon receptor (Glucagon-R) (P47871 26-477): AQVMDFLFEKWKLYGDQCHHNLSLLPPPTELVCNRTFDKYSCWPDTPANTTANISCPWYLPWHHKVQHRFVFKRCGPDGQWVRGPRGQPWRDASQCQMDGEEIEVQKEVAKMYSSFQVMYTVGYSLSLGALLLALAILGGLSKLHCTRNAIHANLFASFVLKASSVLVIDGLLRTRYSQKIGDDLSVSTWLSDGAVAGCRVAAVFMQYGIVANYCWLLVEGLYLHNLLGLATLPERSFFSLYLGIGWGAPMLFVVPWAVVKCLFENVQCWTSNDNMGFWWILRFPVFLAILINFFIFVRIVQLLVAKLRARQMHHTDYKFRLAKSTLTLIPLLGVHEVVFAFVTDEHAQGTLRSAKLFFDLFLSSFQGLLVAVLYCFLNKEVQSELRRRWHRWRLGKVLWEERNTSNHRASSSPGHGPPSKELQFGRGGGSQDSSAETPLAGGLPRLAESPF

- EC50 hGCGR CHO-K1 [nM] (cAMP, AlphaScreen) [1]: 3.6 nM
- EC50 hGLP-1R CHO-K1 [nM] (cAMP, AlphaScreen) [2]: 0.48 nM
- EC50 [nM] (cAMP in murine insulinoma cells) [3]: 0.54 nM
- EC50 [nM] (inhibition of glycogen synthesis rate in primary rat hepatocytes) [4]: 5.6 nM
B1: Compound 1: H-H-Aib-QGTFTSDYSKYLDERAAKDFIEWLE-K([17-Carboxy-heptadecanoyl]-isoGlu-GSGSGG)-A-NH2 (peptide)
peptide: HAQGTFTSDYSKYLDERAAKDFIEWLEKA
modifications: Aib (alpha-aminoisobutyric acid) at position 2; Lys 28 conjugated via its epsilon amino group to [17-Carboxy-heptadecanoyl]-isoGlu-GSGSGG; C-terminal amide (NH2); free N-terminus (R1 = H)
